PMC12354777 (Nature Communications, 2025)

T1: HR1C peptide of SARS-CoV-2 (residues 937-955), His6-tagged (SARS-CoV-2, UniProt P0DTC2)
T1 chain: SLSSTASALGKLQDVVNQN

B1: 3D1 mutant Y93A (light chain, CDRL3) (antibody, V domains shown)
VH: QVQLVQSGSELKKPGASVRISCKASGYSFTSLSMNWVRQAPGQGLEWMGWISTKSGDPTYAQAFTGRFVFSLDTSVNTAYLQINSLEAGDTAVYYCARGQPPVGWTFDYWGQGTLVTVSS
VL: QSALTQPPSASGSPGQSVTISCTGTSSDVGGYNYVSWYQQHPGKAPKLIIYEVSKRPSGVPDRFSGSKSGNTASLTVSGLQAEDEADYYCSSATSSSTLVFGGGTKLTVL
B2: 3D1 mutant W105A (heavy chain, CDRH3) (antibody, V domains shown)
VH: QVQLVQSGSELKKPGASVRISCKASGYSFTSLSMNWVRQAPGQGLEWMGWISTKSGDPTYAQAFTGRFVFSLDTSVNTAYLQINSLEAGDTAVYYCARGQPPVGATFDYWGQGTLVTVSS
VL: QSALTQPPSASGSPGQSVTISCTGTSSDVGGYNYVSWYQQHPGKAPKLIIYEVSKRPSGVPDRFSGSKSGNTASLTVSGLQAEDEADYYCSSYTSSSTLVFGGGTKLTVL
B3: 3D1 mutant N35A (heavy chain) (antibody, V domains shown)
VH: QVQLVQSGSELKKPGASVRISCKASGYSFTSLSMAWVRQAPGQGLEWMGWISTKSGDPTYAQAFTGRFVFSLDTSVNTAYLQINSLEAGDTAVYYCARGQPPVGWTFDYWGQGTLVTVSS
VL: QSALTQPPSASGSPGQSVTISCTGTSSDVGGYNYVSWYQQHPGKAPKLIIYEVSKRPSGVPDRFSGSKSGNTASLTVSGLQAEDEADYYCSSYTSSSTLVFGGGTKLTVL

Target: T1, HR1C peptide of SARS-CoV-2 (residues …)
Assay: BLI
B1: no binding. B2: no binding. B3: no binding.
